Results from the supplement of paper PMC10126150.
± gives the standard deviation of the averaged measurements.

Test system: ATP
Assay: switch fluorescence ratio, 500 uM ATP over buffer (Cy3 cluster intensity, sum of 5 cycles each) (fold (ratio)); higher = stronger signal-on switching upon ATP binding; sequences stand for … in TCGTCGGCAGCGTCAGATGTGTATAAGAGACAGTTTTTTTTTTTTTTTTTTTTTTTTT…TC
Conditions: aptamer strand: ATP DNA aptamer (quencher-CACCTGGGGGAGTATTGCGGAGGAAGG + anchor), 100 nM annealed; ATP concentration: 500 uM
How it was run: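 Clusters carrying Cy3-labelled switching strands on a modified Illumina MiSeq flow-cell were annealed to 100 nM quencher-labelled ATP aptamer and imaged in selection buffer. They were imaged again after 15 min with 500 uM ATP at 22 °C, over five buffer/ATP cycles with NaOH stripping and re-annealing in between. For each cluster, the fluorescence ratio is the summed Cy3 intensity of the target cycles divided by that of the buffer cycles, averaged per switch-domain sequence. Clusters outside 100-1000 RFU were left out.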
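Also: ATP exposure 15 min at 22 °C before imaging.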

| Sequence | switch fluorescence ratio |
| --- | --- |
| CGGTGGCATA | 1.04 ± 0.018 |
| CGGTGGCCGT | 1.02 ± 0.019 |
| CGGTGGCGTA | 0.9975 ± 0.0035 |
| CGGTGGCTGC | 0.967 ± 0.011 |
| CGGTGGGATT | 0.979 ± 0.019 |
| CGGTGGGTAA | 1.01 ± 0.026 |
| CGGTGGGTC | 1.009 ± 0.0047 |
| CGGTGGTCAG | 1.01 ± 0.0076 |
| CGGTGTATTT | 0.9547 ± 0.0037 |
| CGGTGTGTAG | 0.983 ± 0.062 |
| CGGTGTGTCC | 0.97164 ± 0.00017 |
| CGGTTAAGGC | 1.07 ± 0.017 |
| CGGTTACGGA | 0.977 ± 0.035 |
| CGGTTAGGTG | 1.06 ± 0.021 |
| CGGTTATAGG | 0.967 ± 0.012 |
| CGGTTATGGC | 0.978 ± 0.019 |
| CGGTTCCCTA | 0.978 ± 0.033 |
| CGGTTCGAGT | 1.01 ± 0.035 |
| CGGTTGAATG | 0.98841 ± 0.00073 |
| CGGTTGATCT | 1.09 ± 0.13 |
| CGGTTGGCAA | 1.09 ± 0.054 |
| CGGTTGGCCA | 1 ± 0.018 |
| CGGTTGGGTC | 1.05 ± 0.051 |

| Sequence | switch fluorescence ratio |
| --- | --- |
| CGGTTGGTGG | 1.01 ± 0.014 |
| CGGTTTAAGC | 0.994 ± 0.046 |
| CGGTTTAATA | 1.03 ± 0.07 |
| CGGTTTACGT | 0.997 ± 0.018 |
| CGGTTTAGGT | 0.951 ± 0.017 |
| CGGTTTGATT | 1.04 ± 0.073 |
| CGGTTTGCAG | 0.972 ± 0.043 |
| CGGTTTGGAG | 0.995 ± 0.056 |
| CGGTTTTACT | 1.04 ± 0.021 |
| CGGTTTTCTT | 0.995 ± 0.012 |
| CGGTTTTTAT | 0.983 ± 0.018 |
| CGGTTTTTGT | 0.9992 ± 0.008 |
| CGTAAAGGGA | 0.987 ± 0.013 |
| CGTAACTTAC | 1.6 ± 0.097 |
| CGTAAGACGT | 1.03 ± 0.044 |
| CGTAATTGTA | 1.01 ± 0.018 |
| CGTAATTTTC | 1.09 ± 0.083 |
| CGTACAAGTC | 0.963 ± 0.058 |
| CGTACAGCAG | 1.01 ± 0.054 |
| CGTACCAGGG | 1.32 ± 0.036 |
| CGTACCATCC | 1.6 ± 0.18 |
| CGTACCGGTC | 1.04 ± 0.079 |
| CGTACGCCGG | 0.993 ± 0.021 |

| Sequence | switch fluorescence ratio |
| --- | --- |
| CGTACTTGTT | 1.01 ± 0.035 |
| CGTAGACGAA | 0.974 ± 0.0094 |
| CGTAGACTGC | 1.06 ± 0.024 |
| CGTAGGAAAA | 0.98 ± 0.096 |
| CGTAGGATTT | 0.9554 ± 0.0048 |
| CGTAGGGAAT | 1.014 ± 0.0064 |
| CGTAGGGGGA | 0.984 ± 0.015 |
| CGTAGGGGTT | 0.989 ± 0.028 |
| CGTAGTAGAC | 2.61 ± 0.26 |
| CGTAGTAGGA | 1.04 ± 0.084 |
| CGTAGTGCCC | 1.07 ± 0.048 |
| CGTAGTTTGC | 1.52 ± 0.098 |
| CGTATAATGT | 0.996 ± 0.015 |
| CGTATAGAGA | 0.998 ± 0.039 |
| CGTATAGTAG | 0.958 ± 0.02 |
| CGTATATTAG | 0.96 ± 0.014 |
| CGTATCAATT | 1.003 ± 0.004 |
| CGTATCGTGA | 1.01 ± 0.041 |
| CGTATGACTA | 0.984 ± 0.05 |
| CGTATGGGGA | 1 ± 0.023 |
| CGTATTATGG | 0.998 ± 0.05 |
| CGTATTCTGA | 0.966 ± 0.064 |
| CGTATTGCCA | 1 ± 0.025 |

| Sequence | switch fluorescence ratio |
| --- | --- |
| CGTATTTAGT | 0.98 ± 0.035 |
| CGTATTTGGA | 0.985 ± 0.046 |
| CGTATTTTAG | 1 ± 0.029 |
| CGTCAATTTA | 1.12 ± 0.12 |
| CGTCACTAAT | 1.21 ± 0.25 |
| CGTCAGAGCG | 0.9802 ± 0.008 |
| CGTCAGTGCA | 1.01 ± 0.024 |
| CGTCGACGGG | 1.02 ± 0.054 |
| CGTCGGAGGC | 0.986 ± 0.019 |
| CGTCGGCAAA | 3.42 ± 0.21 |
| CGTCGTAGGG | 0.985 ± 0.03 |
| CGTCTGTGGG | 0.9844 ± 0.0041 |
| CGTGAACATA | 1.02 ± 0.034 |
| CGTGAATTGT | 1.044 ± 0.01 |
| CGTGACATTG | 1.01 ± 0.013 |
| CGTGAGATTA | 0.9846 ± 0.0009 |
| CGTGAGCTAA | 1.41 ± 0.19 |
| CGTGATAAGT | 1.02 ± 0.021 |
| CGTGATCAGC | 1.017 ± 0.0098 |
| CGTGCATGAG | 1.01 ± 0.02 |
| CGTGCCCAGC | 1.01 ± 0.025 |
| CGTGCGGATG | 1.02 ± 0.0057 |
| CGTGCGGGGG | 1.01 ± 0.035 |

| Sequence | switch fluorescence ratio |
| --- | --- |
| CGTGCTAGAA | 1.0154 ± 0.001 |
| CGTGCTAGTC | 1.04 ± 0.055 |
| CGTGCTCAGA | 0.996 ± 0.025 |
| CGTGCTGGAC | 1.091 ± 0.0065 |
| CGTGGAGGGG | 1.04 ± 0.013 |
| CGTGGAGTCG | 0.989 ± 0.1 |
| CGTGGATAGT | 0.955 ± 0.03 |
| CGTGGCCTGT | 0.994 ± 0.029 |
| CGTGGCGGAT | 0.9709 ± 0.0092 |
| CGTGGCGGTT | 1.09 ± 0.13 |
| CGTGGGATAA | 1.01 ± 0.023 |
| CGTGGGCGGT | 0.9807 ± 0.0031 |
| CGTGGGGAGC | 1.06 ± 0.11 |
| CGTGGGGCGG | 0.999 ± 0.016 |
| CGTGGGGGGC | 1.01 ± 0.02 |
| CGTGGGGGTC | 1.01 ± 0.013 |
| CGTGGGGGTT | 0.973 ± 0.038 |
| CGTGGGGTCA | 0.982 ± 0.024 |
| CGTGGTAGGG | 0.992 ± 0.035 |
| CGTGGTGCGA | 1.02 ± 0.015 |
| CGTGGTTTGC | 1.03 ± 0.053 |
| CGTGTATTGG | 0.987 ± 0.013 |
| CGTGTATTTC | 1.02 ± 0.022 |

| Sequence | switch fluorescence ratio |
| --- | --- |
| CGTGTCACTT | 1.01 ± 0.023 |
| CGTGTGGGTT | 0.993 ± 0.011 |
| CGTGTGTGGT | 0.994 ± 0.024 |
| CGTGTGTTGA | 1.01 ± 0.013 |
| CGTGTTGGAC | 1.016 ± 0.0032 |
| CGTGTTGGAG | 0.969 ± 0.011 |
| CGTGTTTCGG | 0.97715 ± 0.00018 |
| CGTGTTTTCC | 1.022 ± 0.0015 |
| CGTGTTTTCT | 0.99 ± 0.031 |
| CGTTAAAATA | 1.01 ± 0.062 |
| CGTTACTCCG | 1.5 ± 0.16 |
| CGTTAGTAAA | 0.9862 ± 0.0035 |
| CGTTATACAG | 1.01 ± 0.026 |
| CGTTATATTC | 1.08 ± 0.031 |
| CGTTCAGCT | 1.01 ± 0.035 |
| CGTTCAGTTC | 0.972 ± 0.053 |
| CGTTCAGTTT | 0.9929 ± 0.0028 |
| CGTTCATTGT | 0.9942 ± 0.0098 |
| CGTTCGGAGG | 0.991 ± 0.037 |
| CGTTCGTTCG | 0.989 ± 0.015 |
| CGTTGACGCG | 1.02 ± 0.016 |
| CGTTGAGATC | 1.06 ± 0.059 |
| CGTTGAGGAC | 1.024 ± 0.0053 |

| Sequence | switch fluorescence ratio |
| --- | --- |
| CGTTGAGTCG | 0.992 ± 0.06 |
| CGTTGATGTG | 0.99 ± 0.045 |
| CGTTGGAGCG | 1 ± 0.03 |
| CGTTGGGCTC | 1.019 ± 0.0051 |
| CGTTGGGGGT | 0.978 ± 0.022 |
| CGTTGGTGGC | 0.9457 ± 0.0066 |
| CGTTGGTGTG | 1 ± 0.028 |
| CGTTGTATGG | 1.01 ± 0.046 |
| CGTTGTATTA | 0.996 ± 0.051 |
| CGTTGTGAGG | 1.03 ± 0.038 |
| CGTTGTTACA | 1.04 ± 0.018 |
| CGTTGTTAGT | 1.037 ± 0.0083 |
| CGTTGTTATG | 0.9852 ± 0.0067 |
| CGTTGTTTGG | 0.966 ± 0.058 |
| CGTTTAACTC | 1.05 ± 0.055 |
| CGTTTACTCT | 1.055 ± 0.0043 |
| CGTTTACTTT | 0.984 ± 0.059 |
| CGTTTAGCGT | 1 ± 0.0018 |
| CGTTTAGGTA | 0.982 ± 0.048 |
